The experiment deals with T1, Beta - Amyloid (1 - 42) - Lys(Biotin) - NH2, Human (human, UniProt P05067 672-713, Lys(Biotin) added at the C-terminus; C-terminal amide (NH2)).
T1 construct: amyloid-beta peptide (1-42), human, cut product of the amyloid precursor protein; numbers count on: the Aβ peptide; added C-terminal lysine that carries the biotin, amidated; Held on streptavidin biosensors by the C-terminal biotin; also called monomeric C-terminally biotinylated Aβ42; C-terminally immobilized monomeric Aβ42; source: bought: Anaspec
Nature of the experiment: BLI; C-terminally biotinylated monomeric Aβ42 (5 μg/ml) on streptavidin biosensors; antibodies at 20 μM in PBS + 0.1% BSA + 0.02% TWEEN 20, 30°C; association 900 s, dissociation 1200 s; signal of biocytin-coated sensors subtracted. The following applies: both partners purified.

Changes are numbered by the printed parent chain. In names and notes the source's numbering stands.

T1 sequence (P05067 other isoform, or with tags, fused parts or gaps): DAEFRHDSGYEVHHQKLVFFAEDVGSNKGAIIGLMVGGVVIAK

B1: DesAb-Aβ(3–9) (antibody, V domains shown)
VH: EVQLVESGGGLVQPGGSLRLSCAASGFNIKDTYIGWVRRAPGKGKEWVASIYPTNGYTRYADSVKGRFTISADTSKNTAYLQMNSLRAEDTAVYYCAAGSHETLTLREEEAAAWGQGTLVTVSS
notes: single-domain antibody on a human VH scaffold with the in-silico-designed CDR3 loop HETLTLR and a thermally stabilizing mutation; No cleavage of the tag is told; also called the starting construct; starting single-domain antibody; source: E. coli BL21 (DE3)-Gold, pRSET-B vector, purified (Ni-NTA, SEC); not shown: His6, N-terminal, kept
In the case of B1, the binding result is “binds”.

B2: DesAb-Aβ(3–9) (T138captamine) (antibody, V domains shown)
VH: B1 VH with T103C
modifications: position 138: non-canonical side chain, captamine (2-(dimethylamino)ethanethiol) added to dehydroalanine (Dha) by thiol-Michael addition; epimeric mixture of D and L side chains
notes: T138 is replaced through T138C and Dha by the captamine adduct; The new residue at 138 is written as C because the thiol adduct of Dha is an S-alkylated cysteine (S-(2-dimethylaminoethyl)cysteine); also called the captamine mutant; not shown: His6, N-terminal, kept
As to B2, the binding result is given as “binds”.

The values are drawn from article PMC7837213, “Systematic Activity Maturation of a Single-Domain Antibody with Non-canonical Amino Acids through Chemical Mutagenesis” (Cell Chemical Biology, 2021).
